± gives the uncertainty stated by the source.
Test: protein stability index of a GFP-peptide fusion (yeast GPS) (PSI 1-4); higher = more stable; sorted into four equal gates, so the index is relative within each strain
In short: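 Yeast carrying a pooled library were grown to mid-log phase in leucine-free medium. Each library plasmid expresses Cherry and has a tiled 17-residue yeast protein peptide fused downstream of GFP. Cells were sorted into four equal gates by GFP/Cherry ratio, and plasmids from each gate were PCR-amplified, Illumina-sequenced and assigned to strains by barcode. Summing, across gates, the read frequency times the gate number gave each peptide's protein stability index.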

Row | Sequence | protein stability index (doa10∆) | protein stability index (pdr5∆) | protein stability index (san1∆) | protein stability index (ubr1∆)
1 | FIRKYINQKALRKIQAL [GAL11] | 2.38 ± 0.25 | 1.49 ± 0.22 | 1.79 ± 0.23 | –
2 | FITTLLKSLYSFFNISP [SIN4] | 2.26 ± 0.042 | 1.5 ± 0.037 | 1.46 ± 0.057 | 1.53 ± 0.034
3 | FKDETISKKIIGMSLLM [SIR3] | 3.04 ± 0.062 | 2.07 ± 0.06 | 2.78 ± 0.068 | 3.51 ± 0.058
4 | FKLQEEERERKDQYVPE [RPS17A] | 3.14 ± 0.14 | 3.38 ± 0.091 | 3.4 ± 0.061 | 3.24 ± 0.093
5 | FKSALANLEDIIFEIEK [RRP6] | 3.21 ± 0.13 | 3.13 ± 0.096 | 3.2 ± 0.071 | 2.83 ± 0.12
6 | FKVARELKTEAAVLSNL [ITC1] | 2.83 ± 0.19 | 2.66 ± 0.11 | 2.9 ± 0.089 | 2.86 ± 0.061
7 | FLANHKDRLYCGKCHSV [RPS31] | 2.38 ± 0.17 | 2.61 ± 0.13 | 2.02 ± 0.16 | 2.69 ± 0.082
8 | FLDGIYVSHKGFIVEDM [RPL9B] | 2.24 ± 0.13 | 2.86 ± 0.074 | 2.74 ± 0.087 | 2.66 ± 0.13
9 | FLIHSGQPVNDFIDTAT [RPS3] | 2.71 ± 0.053 | 3 ± 0.056 | 3.09 ± 0.05 | 3.04 ± 0.073
10 | FLIKASVREINLYMLVT [SSN8] | 1.55 ± 0.063 | 1.43 ± 0.047 | 1.89 ± 0.091 | 1.44 ± 0.052
11 | FLKDADVECIKAKSHFT [YJL039C/NUP192] | 3.11 ± 0.13 | 3.2 ± 0.14 | 2.91 ± 0.089 | 2.98 ± 0.059
12 | FLLHNSEIIDTNTSKQF [SRB8] | 2.83 ± 0.086 | 3.06 ± 0.069 | 2.85 ± 0.055 | 2.81 ± 0.044
13 | FLLNQNKQLSQSVEEKV [YIL149C/MLP2] | 2.16 ± 0.084 | 1.84 ± 0.1 | 1.77 ± 0.14 | 2.09 ± 0.068
14 | FLNNGEVDSASDFISKL [RPN3] | 2.57 ± 0.29 | 3.33 ± 0.21 | 2.8 ± 0.27 | 3.29 ± 0.13
15 | FLQKFEIAFHLTLIFYD [YML103C/NUP188] | 1.49 ± 0.083 | 1.46 ± 0.044 | 1.41 ± 0.12 | 1.35 ± 0.052
16 | FLRKATAFNKTRGPFHF [RPL16B] | 3 ± 0.042 | 3.12 ± 0.045 | 2.78 ± 0.043 | 3.08 ± 0.033
17 | FLRQKICLMTLIETVFV [RPN9] | 1.37 ± 0.12 | 1.32 ± 0.12 | 1.06 ± 0.14 | 1.94 ± 0.28
18 | FLRTMKLTSEETVFNYR [GRR1] | 3.11 ± 0.066 | 2.81 ± 0.067 | 3 ± 0.06 | 3.02 ± 0.052
19 | FMSNDGPTLEKYISAEL [SNU114] | 2.18 ± 0.069 | 2.83 ± 0.078 | 3.03 ± 0.054 | 3.24 ± 0.082
20 | FMVRLDSEKHIDFAPTS [RPS9A] | 2.91 ± 0.071 | 2.87 ± 0.047 | 2.72 ± 0.05 | 2.82 ± 0.047
21 | FNAIDLARHLPAELDLR [RPC82] | 2.46 ± 0.09 | 2.56 ± 0.076 | 2.29 ± 0.083 | 2.99 ± 0.11
22 | FNEDQLFSLLELGEQKC [RRP46] | 2.37 ± 0.071 | 2.6 ± 0.089 | 2.61 ± 0.071 | 2.36 ± 0.062
23 | FNGADIRNCATEAGFFA [RPT4] | 3.32 ± 0.065 | 3.38 ± 0.079 | 3.3 ± 0.057 | 3.22 ± 0.048
24 | FNGLKPLIQNSMRTIMK [PRP8] | 2.56 ± 0.091 | 2.51 ± 0.12 | 2.15 ± 0.17 | 2.56 ± 0.15
25 | FNIIREFRSAAGQLALD [YDL116W/NUP84] | 2.92 ± 0.12 | 3.16 ± 0.12 | 2.94 ± 0.076 | 3.25 ± 0.087

Row | Sequence | protein stability index (doa10∆) | protein stability index (pdr5∆) | protein stability index (san1∆) | protein stability index (ubr1∆)
26 | FNKTTNIDINNEDENIQ [YJL041W/NSP1] | 3.19 ± 0.074 | 3.31 ± 0.082 | 3.09 ± 0.056 | 3.2 ± 0.059
27 | FNNEAPPQTRKFQPPPG [SMB1] | 2.86 ± 0.1 | 3.11 ± 0.1 | 3.01 ± 0.075 | 3.13 ± 0.085
28 | FNPYGDNGGTILGIAGE [PRE7] | 3.37 ± 0.1 | 3.24 ± 0.11 | 3.24 ± 0.16 | 3.28 ± 0.064
29 | FNRTKGKMVRAQDVALA [PRP8] | 1.86 ± 0.21 | 1.76 ± 0.13 | – | 1.06 ± 0.096
30 | FNSVQKKSRSNLSQEND [YAR002W/NUP60] | 2.81 ± 0.09 | 2.85 ± 0.071 | 2.49 ± 0.1 | 3.12 ± 0.12
31 | FNTQQGIKKHSLWRRTV [YDL116W/NUP84] | 2.6 ± 0.049 | 2.76 ± 0.043 | 2.77 ± 0.048 | 2.49 ± 0.031
32 | FNVEYFAKEKLTKKEKK [RPL6A] | 2.23 ± 0.084 | 1.68 ± 0.066 | 1.44 ± 0.12 | 1.9 ± 0.073
33 | FNYSGKDMLYSGITGEC [RET1] | 2.48 ± 0.075 | 2.46 ± 0.075 | 2.19 ± 0.12 | 2.61 ± 0.06
34 | FPEVFQVNIRFLLHNSE [SRB8] | 1.64 ± 0.1 | 1.73 ± 0.13 | – | 2.62 ± 0.17
35 | FQDVYDLTGSEPIKEII [FAS1] | 2.78 ± 0.25 | 3.02 ± 0.081 | – | 3.22 ± 0.1
36 | FQELDSKKQRNNGSKDH [RPN9] | 3.09 ± 0.17 | 2.64 ± 0.19 | 2.67 ± 0.15 | 2.37 ± 0.16
37 | FQIIDTLLPGLQDEVMN [RPS2] | 2.32 ± 0.082 | 1.72 ± 0.059 | 2.22 ± 0.091 | 2.09 ± 0.05
38 | FQIVIEPLAIALSMGKS [ARP7] | 1.42 ± 0.054 | 1.71 ± 0.059 | 1.52 ± 0.092 | 1.5 ± 0.07
39 | FQMNCYAKEDAFSYPRM [RPN2] | 2.53 ± 0.12 | 2.52 ± 0.078 | 2.48 ± 0.077 | 2.61 ± 0.047
40 | FQNSYKPALKVSKEGLY [YMR129W/POM152] | 2.42 ± 0.22 | 3.12 ± 0.11 | 3.02 ± 0.082 | 3.07 ± 0.1
41 | FQQIQYENKQLYFPDDY [POP1] | 2.92 ± 0.11 | 2.5 ± 0.083 | 2.78 ± 0.12 | 2.73 ± 0.086
42 | FQSQQRRKDTSMVLFFV [RPB9] | 1.55 ± 0.083 | 1.57 ± 0.14 | 1.62 ± 0.16 | 1.46 ± 0.044
43 | FRAVGEGNAQLVAIFGG [FAS1] | 1.17 ± 0.043 | 1.55 ± 0.063 | 1.51 ± 0.1 | 1.36 ± 0.055
44 | FRETTHSKRELDSGDDQ [BRR2] | 3.31 ± 0.12 | 3.02 ± 0.12 | 2.51 ± 0.088 | 2.78 ± 0.16
45 | FRSYMDQEKKYGMSITE [RPB2] | 1.69 ± 0.054 | 2.43 ± 0.063 | 2.89 ± 0.065 | 2.75 ± 0.032
46 | FSFGKPFFSSNTSSLQS [YIL149C/MLP2] | 2.95 ± 0.054 | 3.07 ± 0.052 | 2.86 ± 0.046 | 2.926 ± 0.028
47 | FSFGQNNNNTNTQPSAS [YGR119C/NUP57] | 2.87 ± 0.071 | 2.61 ± 0.069 | 2.82 ± 0.06 | 2.78 ± 0.043
48 | FSFGTSQPNNTPSFSFG [YLR335W/NUP2] | 2.81 ± 0.048 | 2.73 ± 0.047 | 2.88 ± 0.053 | 2.59 ± 0.037
49 | FSGKGVHKLRHYLVNLT [GRR1] | 1.28 ± 0.037 | 1.44 ± 0.034 | 1.39 ± 0.07 | 1.45 ± 0.029
